Experiment [1] has as its target T1, human GPC3 on cells (CHO-human GPC3 stably transfected cells; HepG2 tumor cells) (human, UniProt P51654 25-554).
T1 construct: whole, on cells; also called Human GPC3-CHO
The experiment can be described thus: flow cytometry on CHO-human GPC3 stably transfected cells. As for the experimental part: (§1) CHO-human GPC3, CHO-Cynomolgus monkey GPC3 stably transfected cells or human hepatocellular carcinoma HepG2 tumor cells in logarithmic growth phase were taken. After blocking, the cells were adjusted to 5×10⁵ cells/ml, and 100 μl/well cell suspension was added to 96-well U-shaped plate and centrifuged at 300 g for 5 min. The supernatant was discarded, 100 μL of gradient diluted antibody (with a starting concentration of 1800 nM, 3-fold dilution, 10 gradients) was added to each well, and incubated at 4° C. for 60 min. 50 μL/well Alexa Fluro647 labeled goat anti-human IgG Fc (1:300 dilution) were added to the secondary antibody, incubated on ice for 20 min, added with 50 μL/well PI solution (1:300) after washing once, incubated for 5 min, and flow cytometer was used to make detection.
(In flow cytometry, cells or beads pass a laser one at a time.)

Experiment [2] deals with T2, cynomolgus monkey GPC3 on CHO stably transfected cells (cynomolgus monkey, UniProt A0A2K5VK50 24-553).
T2 construct: whole, on cells; also called Cynomolgus monkey GPC3-CHO; CHO-Cynomolgus monkey GPC3
The experiment can be described thus: flow cytometry on CHO-cynomolgus monkey GPC3 stably transfected cells. Here is the method: as §1

Experiment [3] concerns the target T3, human CD3 on T cells (Jurkat cells; human peripheral blood CD4+ and CD8+ T-cells) (human, UniProt P07766 23-207).
T3 construct: whole, on cells; also called CD4T; CD4 + T
Nature of the experiment: flow cytometry on Jurkat cells. As for the experimental part:
The cells were adjusted to 5×10^5 cells/mL with 4% calf serum, 100 μL/well was added to 96-well U-plate, 300 g was centrifuged to removed the supernatant, 100 μL/well of gradient diluted antibody (initial concentration: 1800 nM, 3-fold dilution, 10 gradients) was added and incubated at 4° C. for 60 min. 50 μL/well Alexa Fluro647-labeled goat anti-human IgG Fc (1:300 dilution) was added to the secondary antibody and incubated on ice for 20 min. 50 μL/well PI was added after washing once, incubated for 5 min, and detected with flow cytometer (BD C6).

Experiment [4] has as its target T3, human CD3 on T cells (Jurkat cells; …). The experiment can be described thus: flow cytometry on peripheral blood CD4+ T-cells. Here is the method: (§2) Fresh human or cynomolgus monkey peripheral blood was taken and PBMC was isolated by Ficoll. Paque Plus (GE, 17-1440-03). PBMC was adjusted to 5×10⁵ cells/mL with 4% calf serum (Hyclone, SH30626.06), 100 μL/well was added to a 96-well U-plate, the supernatant was centrifuged off and 100 μL of gradient diluted antibody (with starting concentration of 1800 nM, 3-fold dilution, 10 gradients) was added to each well and incubated for 60 min at 4° C. 50 μL/well Alexa Fluro647 labeled goat anti-human IgG Fc (1:300 dilution) was added to secondary antibody, with ice bath for 20 min. 50 μL/well PI was added after washing once and incubated for 5 min, and flow cytometer (BD Celesta) is used to make detection.

Experiment [5] addresses T1, human GPC3 on cells (CHO-human GPC3 …). The experiment can be described thus: flow cytometry on HepG2 cells. Here is the method:
as §1

Experiment [6] deals with T3, human CD3 on T cells (Jurkat cells; …). Nature of the experiment: flow cytometry on peripheral blood CD8+ T-cells. Here is the method:
as §2

Experiment [7] has the same target. Nature of the experiment: flow cytometry on Jurkat cells. As for the experimental part:
Jurkat cells in logarithmic growth phase were blocked with 3% BSA for 30 min, added to 96-well U-plate at 5×10^4 cells per well, centrifuged to discard the supernatant, and added with 50 μL of gradient diluted antibody (antibody concentration:from 30 μg/mL, with 3-fold dilution for 5 gradients) per well, and incubated at 4° C. for 1 hour. After washing off the primary antibody, a 1:300 dilution of Alexa Fluro647 labeled goat anti-human IgG Fc (Jackson ImmunoResearch, 109-606-170) was added to the secondary antibody, incubated for 45 min at 4° C., and, after washing, resuspended in 50 μL of PBS per well for FACS (iQue, intellicyt) detection.
This is another data set of the same source.

The target of experiment [8] is T4, human CD3εγ-Fc heterodimer (human).
T4 construct: also called human CD3εγ recombinant protein; human CD3εγ protein
T4 chain 1: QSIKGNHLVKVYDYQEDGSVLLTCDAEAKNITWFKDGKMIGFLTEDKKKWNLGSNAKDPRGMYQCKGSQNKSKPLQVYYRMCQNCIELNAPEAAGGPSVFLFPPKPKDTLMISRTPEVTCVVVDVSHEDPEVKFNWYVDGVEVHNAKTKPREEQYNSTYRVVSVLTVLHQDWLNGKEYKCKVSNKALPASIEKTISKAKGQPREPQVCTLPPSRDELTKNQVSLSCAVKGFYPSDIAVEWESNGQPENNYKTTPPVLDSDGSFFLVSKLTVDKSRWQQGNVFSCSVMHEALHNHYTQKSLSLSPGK
T4 chain 2: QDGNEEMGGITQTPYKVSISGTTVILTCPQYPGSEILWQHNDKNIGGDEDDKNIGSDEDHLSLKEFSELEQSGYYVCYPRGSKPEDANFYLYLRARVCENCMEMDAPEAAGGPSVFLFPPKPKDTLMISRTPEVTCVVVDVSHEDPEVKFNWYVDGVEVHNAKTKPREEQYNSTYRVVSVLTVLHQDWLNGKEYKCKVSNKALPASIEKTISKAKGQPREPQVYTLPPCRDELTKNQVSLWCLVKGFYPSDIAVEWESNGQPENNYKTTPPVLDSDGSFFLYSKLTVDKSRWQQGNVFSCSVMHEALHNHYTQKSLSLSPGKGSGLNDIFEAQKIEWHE
The experiment can be described thus: ELISA, coated human CD3εγ recombinant protein. Here is the method: Human CD3εγ recombinant protein was coated overnight at 4° C. After blocking with 2% skim milk, different dilutions of CD3 antibody were added to each well and incubated for 1 hour. After the secondary antibody was developed by adding HPR-labeled goat anti-human IgG Fc and TMB solution, the reaction was stopped with concentrated sulfuric acid and the absorbance was read at 450 nm.
Background: ELISA stands for enzyme-linked immunosorbent assay.

In experiment [9] the target is T5, Cynomolgus monkey CD3εγ-Fc heterodimer (cynomolgus monkey).
T5 construct: also called cynomolgus monkey CD3εγ protein
T5 chain 1: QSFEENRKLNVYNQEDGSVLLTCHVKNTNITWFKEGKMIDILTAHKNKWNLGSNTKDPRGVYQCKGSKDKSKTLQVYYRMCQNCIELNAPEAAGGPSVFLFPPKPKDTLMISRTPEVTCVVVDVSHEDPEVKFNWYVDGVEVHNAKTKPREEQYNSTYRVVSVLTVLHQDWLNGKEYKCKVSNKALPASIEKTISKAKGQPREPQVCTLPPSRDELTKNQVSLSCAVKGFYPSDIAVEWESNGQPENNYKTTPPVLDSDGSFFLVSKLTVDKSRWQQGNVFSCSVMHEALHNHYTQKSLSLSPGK
T5 chain 2: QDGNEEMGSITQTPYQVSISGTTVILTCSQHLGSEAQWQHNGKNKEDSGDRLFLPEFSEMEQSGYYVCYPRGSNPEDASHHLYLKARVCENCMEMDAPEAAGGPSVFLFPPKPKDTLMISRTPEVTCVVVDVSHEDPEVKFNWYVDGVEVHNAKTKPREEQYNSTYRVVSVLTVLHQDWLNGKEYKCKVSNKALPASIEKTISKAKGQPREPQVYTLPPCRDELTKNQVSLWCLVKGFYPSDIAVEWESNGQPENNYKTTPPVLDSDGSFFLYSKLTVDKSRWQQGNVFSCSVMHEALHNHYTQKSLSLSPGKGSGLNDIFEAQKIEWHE
The experiment can be described thus: ELISA, coated cynomolgus monkey CD3εγ protein. As for the experimental part: Human CD3εγ protein and cynomolgus monkey CD3εγ protein were coated separately overnight at 4° C. After blocking with 2% skim milk, different dilutions of CD3 antibody were added to each well and incubated for 1 hour. After the secondary antibody was developed by adding HPR-labeled goat anti-human IgG Fc and TMB solution, the reaction was stopped with concentrated sulfuric acid, and the absorbance was read at 450 nm.

Positions count from the first letter of the chain named.

B1: GPC3 × CD3 κλ002 (bispecific antibody, human IgG4 S228P, kappa, lambda)
light 1: DVVMTQSPLSLPVTPGEPASISCRSSQSIVHSNGNTYLEWYLKKPGQSPQLLIYKVSNRFSGVPDRFSGSGSGTDFTLKISRVEAEDVGVYFCLQVTHVPLTFGQGTKLEIKRTVAAPSVFIFPPSDEQLKSGTASVVCLLNNFYPREAKVQWKVDNALQSGNSQESVTEQDSKDSTYSLSSTLTLSKADYEKHKVYACEVTHQGLSSPVTKSFNRGEC
heavy 1: QVQLVQSGAEVKKPGSSVKVSCKASGYTFADYEIHWVREAPGQGLEWMGAIHPGSGGTAYAQKFQGRVTLTADESSTTAYMELSSLRSEDTAVYYCTRYYSFAYWGQGTLVTVSSASTKGPSVFPLAPCSRSTSESTAALGCLVKDYFPEPVTVSWNSGALTSGVHTFPAVLQSSGLYSLSSVVTVPSSSLGTKTYTCNVDHKPSNTKVDKRVESKYGPPCPPCPAPEFEGGPSVFLFPPKPKDTLMISRTPEVTCVVVDVSQEDPEVQFNWYVDGVEVHNAKTKPREEQFNSTYRVVSVLTVLHQDWLNGKEYKCKVSNKGLASSIEKTISKAKGQPREPQVCTLPPSQEEMTKNQVSLSCAVKGFYPSDIAVEWESNGQPENNYKTTPPVLDSDGSFFLVSKLTVDKSRWQEGNVFSCSVMHEALHNHYTQKSLSLSLGK
light 2: QAVVTQEPSLTVSPGGTVTLTCRSSTGAVTTSNYANWVQEKPGQAPRGLIGGTNKRAPWTPARFSGSLLGGKAALTITGAQAEDEAEYYCVLWYSNLWVFGGGTKLTVLGQPKAAPSVTLFPPSSEELQANKATLVCLISDFYPGAVTVAWKADSSPVKAGVETTTPSKQSNNKYAASSYLSLTPEQWKSHRSYSCQVTHEGSTVEKTVAPTECS
heavy 2: EVQLVESGGGLVQPGGSLRLSCAASGFTFNTYAMNWVRKAPGKGLEWVGRIRSKYNNYATYYADSVKDRFTISRDDSKNSLYLQMNSLKTEDTAVYYCVRHGNFGNSYVSWFAYWGQGTLVTVSSASTKGPSVFPLAPCSRSTSESTAALGCLVKDYFPEPVTVSWNSGALTSGVHTFPAVLQSSGLYSLSSVVTVPSSSLGTKTYTCNVDHKPSNTKVDKRVESKYGPPCPPCPAPEFEGGPSVFLFPPKPKDTLMISRTPEVTCVVVDVSQEDPEVQFNWYVDGVEVHNAKTKPREEQFNSTYRVVSVLTVLHQDWLNGKEYKCKVSNKGLASSIEKTISKAKGQPREPQVYTLPPCQEEMTKNQVSLWCLVKGFYPSDIAVEWESNGQPENNYKTTPPVLDSDGSFFLYSKLTVDKSRWQEGNVFSCSVMHEALHNHYTQKSLSLSLGK
notes: also called GPC3×CD3 κλ bispecific antibody
As to B1, the half-maximal effective concentration (EC50) was found to be 2.8 nM in experiment [1]; 3 nM in experiment [2]; 36 nM in experiment [3]; 65 nM in experiment [4]; 2.1 nM in experiment [5]; 65 nM in experiment [6].

B2: GPC3 × CD3 κλ003 (bispecific antibody, human IgG4 S228P, kappa, lambda)
light 1: B1 light 1 with E128K, Q129K
heavy 1: B1 heavy 1 with K145E, K211E
light 2: B1 light 2
heavy 2: B1 heavy 2
notes: Human IgG4 knob-into-hole Fc with Ser228Pro, Leu235Glu, Pro329Ala; also called GPC3×CD3 κλ bispecific antibody
For the molecule B2, the concentration giving a half-maximal response (EC50) in [1] came out at 2.9 nM; in [2], 3 nM; in experiment [3] it was 26 nM; in [4], 56 nM; in [5], 2.5 nM; in experiment [6], 69 nM.

B3: aCD3-hVH9/VL2 (antibody, human IgG4, V domains shown)
VH: EVQLVESGGGLVQPGGSLRLSCAASGFTFNTYAMNWVRKAPGKGLEWVGRIRSKYNNYATYYADSVKDRFTISRDDSKNSLYLQMNSLKTEDTAVYYCVRHGNFGNSYVSWFAYWGQGTLVTVSS
VL: QAVVTQEPSLTVSPGGTVTLTCRSSTGAVTTSNYANWVQEKPGQAPRGLIGGTNKRAPWTPARFSGSLLGGKAALTLSGAQPEDEAEYYCALWYSNLWVFGGGTKLTVL
notes: also called humanized anti-CD3 antibody hVH9/VL2
With B3, in [7], the “affinity (FACS)” value turned out to be 25 nM. Besides, the “affinity (ELISA)” value in experiment [8] was found to be 0.44 nM. In addition, the binding result in experiment [9] is “binds”.

B4: aCD3-hVH9/VL5 (antibody, human IgG4, V domains shown)
VH: B3 VH
VL: B3 VL with L77I, S78T, P82A, A91V
notes: also called humanized anti-CD3 antibody hVH9/VL5
In the case of B4, the “affinity (FACS)” value in experiment [7] came out at 20 nM. Moreover, the “affinity (ELISA)” value in experiment [8] was found to be 0.42 nM. Further, in experiment [9], the binding result is given as “binds”.

The EC50 is the concentration that produces a half-maximal response.

The values are drawn from patent US20250346685A1 (published 2025).
